Laboratory results: patent US20110275057A1
Blank lines part the entries; values can stand above or below the substance they belong to.

Legend:
[1] = biological target: Protein Kinase A catalytic subunit (bos taurus) (UniProt P00517); test: cell-based or functional assay
[2] = biological target: Protein Kinase A catalytic subunit (bos taurus) (UniProt P00517); test: holoenzyme formation with CS; method and reference not described

kinase activity, fold increase on addition of cAMP to the chimera holoenzyme, batch of FIG. 17a [1]: 3 fold | kinase activity, fold increase on addition of cAMP to the chimera holoenzyme, second batch (FIG. 17b) [1]: 2 fold | γcAMP (case γDNA<γcAMP) [1]: 2.3 fold | γcAMP (increase in activity by cAMP; case γDNA≧γcAMP) [1]: 2.6 fold | decrease in associating with the CS to form the holoenzyme [2]: 20%
Substance: RIα-DNA chimera: PKA regulatory subunit (Ser 145→Cys; Gly 235→Cys) with a single stranded DNA 60 mer coupled to the two Cys residues (from UniProt Q9DBC7 1-381)

kinase activity (Luciferase assay, ATP disappearance), fold increase over the ss chimera holoenzyme, batch of FIG. 17a [1]: 2 fold | kinase activity, increase over the ss chimera holoenzyme, second synthesis batch (FIG. 17b) [1]: 50% | γDNA (increase in activity by the complementary DNA, corrected for the yield; case γDNA≧γcAMP) [1]: 2.7 fold
Substance: RIα-DNA chimera hybridized with the complementary DNA 60 mer (ds chimera, under mechanical tension) (from UniProt Q9DBC7 1-381)

inhibitory effects (on kinase activity) relative to the wild type RS [1]: > 80% | kinase activity, fold increase on addition of cAMP to the holoenzyme built with the Cys mutant without DNA (FIG. 17b) [1]: 3 fold
Substance: Protein Kinase A regulatory subunit (RIα isomer), double Cys mutant (Ser 145→Cys; Gly 235→Cys), no DNA coupled (from UniProt Q9DBC7 1-381)
